From patent US10562936B2, “Ligands for integrin αvβ6, synthesis and uses thereof” (Technische Universitat Munchen, priority 2015, dated 2020)
Square brackets hold non-standard residues; d marks the D form. NMeK = CN[C@@H](CCCCN)C(=O)O; Sar = CNCC(=O)O

B1: Compound 6, cyclic peptide A R G D L p P (peptide)
peptide: cyclo(ARGDL[dP]P)
SMILES: CC(C)C[C@@H]1NC(=O)[C@H](CC(=O)O)NC(=O)CNC(=O)[C@H](CCCNC(=N)N)NC(=O)[C@H](C)NC(=O)[C@@H]2CCCN2C(=O)[C@H]2CCCN2C1=O
notes: Comparative compound (*)
B2: Compound 7, cyclic peptide A R G D L d L p P (peptide)
peptide: cyclo(ARGDL[dD]L[dP]P)
SMILES: CC(C)C[C@@H]1NC(=O)[C@H](CC(=O)O)NC(=O)CNC(=O)[C@H](CCCNC(=N)N)NC(=O)[C@H](C)NC(=O)[C@@H]2CCCN2C(=O)[C@H]2CCCN2C(=O)[C@H](CC(C)C)NC(=O)[C@@H](CC(=O)O)NC1=O
notes: Comparative compound (*)
B3: Compound 9, cyclic peptide A R G D F A L p P (peptide)
peptide: cyclo(ARGDFAL[dP]P)
SMILES: CC(C)C[C@@H]1NC(=O)[C@H](C)NC(=O)[C@H](Cc2ccccc2)NC(=O)[C@H](CC(=O)O)NC(=O)CNC(=O)[C@H](CCCNC(=N)N)NC(=O)[C@H](C)NC(=O)[C@@H]2CCCN2C(=O)[C@H]2CCCN2C1=O
notes: Comparative compound (*)
B4: Compound 5, cyclic peptide A R G D L L p P (peptide)
peptide: cyclo(ARGDLL[dP]P)
SMILES: CC(C)C[C@@H]1NC(=O)[C@H](CC(=O)O)NC(=O)CNC(=O)[C@H](CCCNC(=N)N)NC(=O)[C@H](C)NC(=O)[C@@H]2CCCN2C(=O)[C@H]2CCCN2C(=O)[C@H](CC(C)C)NC1=O
notes: Comparative compound (*)
B5: Compound 2, cyclic peptide A R G D A A A L p P (peptide)
peptide: cyclo(ARGDAAAL[dP]P)
SMILES: CC(C)C[C@@H]1NC(=O)[C@H](C)NC(=O)[C@H](C)NC(=O)[C@H](C)NC(=O)[C@H](CC(=O)O)NC(=O)CNC(=O)[C@H](CCCNC(=N)N)NC(=O)[C@H](C)NC(=O)[C@@H]2CCCN2C(=O)[C@H]2CCCN2C1=O
notes: Comparative compound (*)
B6: Compound 3, cyclic peptide A R G D L A A A p P (peptide)
peptide: cyclo(ARGDLAAA[dP]P)
SMILES: CC(C)C[C@@H]1NC(=O)[C@H](CC(=O)O)NC(=O)CNC(=O)[C@H](CCCNC(=N)N)NC(=O)[C@H](C)NC(=O)[C@@H]2CCCN2C(=O)[C@H]2CCCN2C(=O)[C@H](C)NC(=O)[C@H](C)NC(=O)[C@H](C)NC1=O
notes: Comparative compound (*)
B7: Compound 13, cyclic peptide A R G D L A L p Sar (peptide)
peptide: cyclo(ARGDLAL[dP][Sar])
SMILES: CC(C)C[C@@H]1NC(=O)[C@H](CC(=O)O)NC(=O)CNC(=O)[C@H](CCCNC(=N)N)NC(=O)[C@H](C)NC(=O)CN(C)C(=O)[C@H]2CCCN2C(=O)[C@H](CC(C)C)NC(=O)[C@H](C)NC1=O
B8: Compound 17, cyclic peptide A R G D L A F p (NMe)K (peptide)
peptide: cyclo(ARGDLAF[dP][NMeK])
SMILES: CC(C)C[C@@H]1NC(=O)[C@H](CC(=O)O)NC(=O)CNC(=O)[C@H](CCCNC(=N)N)NC(=O)[C@H](C)NC(=O)[C@H](CCCCN)N(C)C(=O)[C@H]2CCCN2C(=O)[C@H](Cc2ccccc2)NC(=O)[C@H](C)NC1=O
B9: Compound 15, cyclic peptide A R G D L A L p (NMe)K (peptide)
peptide: cyclo(ARGDLAL[dP][NMeK])
SMILES: CC(C)C[C@@H]1NC(=O)[C@H](CC(=O)O)NC(=O)CNC(=O)[C@H](CCCNC(=N)N)NC(=O)[C@H](C)NC(=O)[C@H](CCCCN)N(C)C(=O)[C@H]2CCCN2C(=O)[C@H](CC(C)C)NC(=O)[C@H](C)NC1=O
B10: Compound 22, cyclic peptide W R G D L A F p (NMe)K (peptide)
peptide: cyclo(WRGDLAF[dP][NMeK])
SMILES: CC(C)C[C@@H]1NC(=O)[C@H](CC(=O)O)NC(=O)CNC(=O)[C@H](CCCNC(=N)N)NC(=O)[C@H](Cc2c[nH]c3ccccc23)NC(=O)[C@H](CCCCN)N(C)C(=O)[C@H]2CCCN2C(=O)[C@H](Cc2ccccc2)NC(=O)[C@H](C)NC1=O

target: T1, integrin αvβ6 (soluble integrin) (UniProt P06756 31-992; P18564 22-707); assay: solid-phase binding assay, competition; coated LAP, soluble αvβ6
T1 construct: Only 'soluble integrins' is said
T1 sequence (P06756 31-992, chain 1 of 2): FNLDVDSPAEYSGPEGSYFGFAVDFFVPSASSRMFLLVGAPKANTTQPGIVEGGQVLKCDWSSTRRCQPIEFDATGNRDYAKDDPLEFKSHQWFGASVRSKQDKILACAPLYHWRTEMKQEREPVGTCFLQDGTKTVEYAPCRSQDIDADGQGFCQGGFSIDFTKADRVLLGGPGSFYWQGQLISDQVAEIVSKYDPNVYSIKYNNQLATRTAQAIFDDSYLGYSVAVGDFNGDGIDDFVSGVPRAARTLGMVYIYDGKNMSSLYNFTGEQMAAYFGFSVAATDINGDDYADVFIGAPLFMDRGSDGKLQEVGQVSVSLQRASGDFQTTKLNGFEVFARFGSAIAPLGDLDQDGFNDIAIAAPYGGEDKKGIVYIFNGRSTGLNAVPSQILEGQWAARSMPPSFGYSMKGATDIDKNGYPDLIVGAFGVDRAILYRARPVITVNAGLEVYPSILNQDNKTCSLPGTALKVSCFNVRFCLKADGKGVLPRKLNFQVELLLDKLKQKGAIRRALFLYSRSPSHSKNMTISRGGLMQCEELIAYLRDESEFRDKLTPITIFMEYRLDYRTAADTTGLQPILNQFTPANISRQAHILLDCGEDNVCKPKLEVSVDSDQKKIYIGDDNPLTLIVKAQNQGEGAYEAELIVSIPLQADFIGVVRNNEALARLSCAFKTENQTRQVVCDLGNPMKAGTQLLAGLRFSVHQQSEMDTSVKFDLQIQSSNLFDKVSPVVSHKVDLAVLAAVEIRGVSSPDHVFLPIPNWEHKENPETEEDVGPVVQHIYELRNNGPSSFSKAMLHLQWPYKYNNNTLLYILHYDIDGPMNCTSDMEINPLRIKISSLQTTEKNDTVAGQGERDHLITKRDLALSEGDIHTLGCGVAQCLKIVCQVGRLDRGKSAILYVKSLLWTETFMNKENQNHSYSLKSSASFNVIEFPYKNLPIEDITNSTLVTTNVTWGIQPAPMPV
T1 sequence (P18564 22-707, chain 2 of 2): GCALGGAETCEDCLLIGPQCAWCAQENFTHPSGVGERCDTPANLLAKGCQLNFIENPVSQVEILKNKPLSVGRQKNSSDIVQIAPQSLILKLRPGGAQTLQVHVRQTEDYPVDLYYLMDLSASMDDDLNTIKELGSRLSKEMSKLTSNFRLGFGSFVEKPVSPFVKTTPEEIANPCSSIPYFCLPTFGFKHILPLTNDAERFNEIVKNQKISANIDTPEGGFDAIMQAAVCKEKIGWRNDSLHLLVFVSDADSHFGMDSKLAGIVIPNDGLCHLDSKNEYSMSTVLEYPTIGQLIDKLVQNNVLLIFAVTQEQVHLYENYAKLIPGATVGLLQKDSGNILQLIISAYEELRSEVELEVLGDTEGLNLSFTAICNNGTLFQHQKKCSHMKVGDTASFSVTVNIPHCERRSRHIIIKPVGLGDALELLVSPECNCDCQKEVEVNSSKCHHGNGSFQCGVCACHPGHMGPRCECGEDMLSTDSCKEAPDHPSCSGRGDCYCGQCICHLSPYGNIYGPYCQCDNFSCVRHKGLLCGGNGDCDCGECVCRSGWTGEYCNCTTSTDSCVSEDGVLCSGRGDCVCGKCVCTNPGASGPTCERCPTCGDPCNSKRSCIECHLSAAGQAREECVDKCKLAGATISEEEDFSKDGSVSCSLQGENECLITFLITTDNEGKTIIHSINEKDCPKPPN

Binder | IC50
B1 | 417 nM
B2 | 148 nM
B3 | 63.4 nM
B4 | 292 nM
B5 | 320 nM
B6 | 15.4 nM
B7 | 8.1 nM
B8 | 0.7 nM
FRGDLAYXX (head-to-tail cyclic; D-Pro (p) at position 8; N-methyl-Lys at position 9) [Compound 19, cyclic peptide F R G D L A Y p (NMe)K] | 0.39 nM
B9 | 4.3 nM

target: T2, integrin αvβ3 (soluble integrin) (UniProt P06756 31-992; P05106 27-718); assay: solid-phase binding assay, competition; coated vitronectin, soluble αvβ3
T2 construct: Only 'soluble integrins' is said
T2 sequence (P06756 31-992, chain 1 of 2): as the sequence (P06756 31-992, chain 1 of 2) above
T2 sequence (P05106 27-718, chain 2 of 2): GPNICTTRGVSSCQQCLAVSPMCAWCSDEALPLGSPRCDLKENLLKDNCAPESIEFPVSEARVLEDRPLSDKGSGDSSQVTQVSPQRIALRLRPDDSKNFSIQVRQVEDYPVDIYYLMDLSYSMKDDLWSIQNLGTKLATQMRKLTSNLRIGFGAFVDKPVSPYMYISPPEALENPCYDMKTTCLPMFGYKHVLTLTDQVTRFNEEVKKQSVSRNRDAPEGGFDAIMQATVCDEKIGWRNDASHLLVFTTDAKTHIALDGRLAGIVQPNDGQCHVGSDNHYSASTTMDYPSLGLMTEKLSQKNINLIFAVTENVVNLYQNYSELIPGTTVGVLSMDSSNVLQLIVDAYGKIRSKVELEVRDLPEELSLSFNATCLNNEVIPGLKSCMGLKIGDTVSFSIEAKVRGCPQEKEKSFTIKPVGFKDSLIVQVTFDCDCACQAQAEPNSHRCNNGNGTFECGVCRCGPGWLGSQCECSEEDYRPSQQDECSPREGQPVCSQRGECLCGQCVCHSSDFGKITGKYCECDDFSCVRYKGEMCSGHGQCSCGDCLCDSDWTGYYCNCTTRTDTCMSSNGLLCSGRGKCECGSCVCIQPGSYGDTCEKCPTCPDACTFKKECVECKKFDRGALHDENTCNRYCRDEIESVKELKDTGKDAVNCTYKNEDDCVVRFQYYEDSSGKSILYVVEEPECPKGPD

Binder | IC50
B3 | 65.2 nM
B7 | 87.7 nM
B8 | 143 nM
FRGDLAYXX (head-to-tail cyclic; D-Pro (p) at position 8; N-methyl-Lys at position 9) [Compound 19, cyclic peptide F R G D L A Y p (NMe)K] | 685 nM
B9 | 415 nM
B10 | 645 nM
